Data as given in US20170022292A1 (Novartis, published 2017).

Assays:
[1] = target: T1, human FXI zymogen (human, UniProt P03951 19-625); assay: solution equilibrium titration (SET), MSD ECL read-out, 1:2 fit, n=3; apparent KD (avidity possible)
T1 construct: In the TGA the target is the FXI present in pooled human plasma; also called huFXI; hFXI

[2] = target: T2, human FXI activated (human Factor XIa, full length) (human, UniProt P03951 19-387; P03951 388-625); assay: as above
T2 construct: also called huFXIa; full length human FXIa
T2 sequence (P03951 19-387 C226S limits assumed, form in doubt, chain 1 of 2): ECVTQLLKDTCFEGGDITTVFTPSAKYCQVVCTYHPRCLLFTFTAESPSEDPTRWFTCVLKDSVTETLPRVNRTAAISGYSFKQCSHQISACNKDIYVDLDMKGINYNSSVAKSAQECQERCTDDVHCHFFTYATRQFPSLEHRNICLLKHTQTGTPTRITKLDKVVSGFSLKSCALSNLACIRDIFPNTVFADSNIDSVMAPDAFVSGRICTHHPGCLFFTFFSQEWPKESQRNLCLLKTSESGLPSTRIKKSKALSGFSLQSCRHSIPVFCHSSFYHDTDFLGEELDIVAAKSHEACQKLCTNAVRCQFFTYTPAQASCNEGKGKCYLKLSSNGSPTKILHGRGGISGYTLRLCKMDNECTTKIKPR
T2 sequence (P03951 388-625 limits assumed, form in doubt, chain 2 of 2): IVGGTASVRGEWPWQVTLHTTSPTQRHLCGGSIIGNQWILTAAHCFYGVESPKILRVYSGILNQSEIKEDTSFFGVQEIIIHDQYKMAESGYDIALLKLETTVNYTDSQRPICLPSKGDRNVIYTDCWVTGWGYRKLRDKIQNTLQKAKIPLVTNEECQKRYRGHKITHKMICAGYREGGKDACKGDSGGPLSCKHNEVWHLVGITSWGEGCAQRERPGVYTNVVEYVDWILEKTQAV

[3] = target: T3, activated cynomolgus monkey FXI (cynomolgus monkey, UniProt A0A2K5VVW4 19-387; A0A2K5VVW4 388-625); assay: solution equilibrium titration (SET); apparent KD, N=2; activated cynomolgus monkey FXI; apparent KD, SET, N=2
T3 construct: also called cynomolgus monkey FXIa; cynomolgus monkey FXI (active form)
T3 sequence (chain, as listed by the source, form in doubt, chain 1 of 2): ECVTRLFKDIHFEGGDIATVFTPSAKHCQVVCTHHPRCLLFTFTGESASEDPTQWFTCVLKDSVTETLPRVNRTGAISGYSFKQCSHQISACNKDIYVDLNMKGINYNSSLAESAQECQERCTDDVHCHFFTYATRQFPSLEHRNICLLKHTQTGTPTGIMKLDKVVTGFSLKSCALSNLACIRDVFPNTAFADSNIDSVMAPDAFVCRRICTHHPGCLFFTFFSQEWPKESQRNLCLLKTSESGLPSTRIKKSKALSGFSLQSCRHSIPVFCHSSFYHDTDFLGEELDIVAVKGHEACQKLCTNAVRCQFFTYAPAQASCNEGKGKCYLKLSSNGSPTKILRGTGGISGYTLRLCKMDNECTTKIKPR
T3 sequence (chain, as listed by the source, form in doubt, chain 2 of 2): as the sequence (P03951 388-625 limits assumed, form in doubt, chain 2 of 2) above, with S59I, E156D, V225L, V238A counted along it

[4] = target: T4, human FXI catalytic domain (residues 388-625, Swissprot P03951) (human, UniProt P03951 388-625); assay: SPR (BIACORE T200), IgG captured by goat anti-human IgG-Fc, FXI catalytic domain 0-200 nM as analyte, 25 C, 1:1 model, n=2
T4 construct: it is treated here as the same molecule; also called FXI CD; FXIa CD
T4 sequence (P03951 388-625 limits assumed, form in doubt, one chain of several): as the sequence (P03951 388-625 limits assumed, form in doubt, chain 2 of 2) above

[5] = target: T1, human FXI zymogen; assay: cell-based or functional assay
[6] = target: T2, human FXI activated (human Factor XIa, …); assay: cell-based or functional assay
[7] = target: T5, cynomolgus monkey FXI zymogen (cynomolgus monkey, UniProt A0A2K5VVW4 19-624); assay: solution equilibrium titration (SET); apparent KD, N=2; cynomolgus monkey FXI zymogen; apparent KD, SET, N=2
T5 construct: also called free FXI (FXIf) in cynomolgus plasma
T5 sequence (A0A2K5VVW4 entry or part of it): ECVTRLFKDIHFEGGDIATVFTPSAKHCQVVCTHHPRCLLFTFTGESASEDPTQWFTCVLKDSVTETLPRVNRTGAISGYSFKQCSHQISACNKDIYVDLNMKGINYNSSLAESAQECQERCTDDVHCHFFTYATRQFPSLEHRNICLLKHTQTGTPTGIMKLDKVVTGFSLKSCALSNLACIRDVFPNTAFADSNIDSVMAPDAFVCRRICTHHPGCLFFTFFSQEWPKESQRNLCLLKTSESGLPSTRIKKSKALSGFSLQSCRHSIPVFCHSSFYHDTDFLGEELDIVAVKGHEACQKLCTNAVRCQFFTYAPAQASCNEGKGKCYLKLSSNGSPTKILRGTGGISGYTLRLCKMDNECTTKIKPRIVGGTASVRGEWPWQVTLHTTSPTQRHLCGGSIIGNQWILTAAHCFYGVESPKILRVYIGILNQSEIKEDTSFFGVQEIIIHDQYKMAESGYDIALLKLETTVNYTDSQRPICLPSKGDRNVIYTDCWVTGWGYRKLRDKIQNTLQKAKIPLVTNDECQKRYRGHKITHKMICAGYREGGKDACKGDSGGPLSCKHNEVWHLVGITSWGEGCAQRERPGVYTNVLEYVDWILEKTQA

[8] = target: T1, human FXI zymogen; assay: SET KD compared with SPR KD for the FXI catalytic domain
[9] = target: T2, human FXI activated (human Factor XIa, …); assay: as above
[10] = target: T4, human FXI catalytic domain (residues …); assay: SPR (BIACORE T200), Fab amine-coupled on CM5 chip, FXI catalytic domain 0-200 nM as analyte, 25 C, 1:1 model, n=3
[11] = target: T1, human FXI zymogen; assay: solution equilibrium titration (SET), MSD ECL read-out, 1:1 fit, n=3
[12] = target: T2, human FXI activated (human Factor XIa, …); assay: as above
[13] = target: T1, human FXI zymogen; assay: SET

T1 sequence (P03951 19-625 C226S limits assumed): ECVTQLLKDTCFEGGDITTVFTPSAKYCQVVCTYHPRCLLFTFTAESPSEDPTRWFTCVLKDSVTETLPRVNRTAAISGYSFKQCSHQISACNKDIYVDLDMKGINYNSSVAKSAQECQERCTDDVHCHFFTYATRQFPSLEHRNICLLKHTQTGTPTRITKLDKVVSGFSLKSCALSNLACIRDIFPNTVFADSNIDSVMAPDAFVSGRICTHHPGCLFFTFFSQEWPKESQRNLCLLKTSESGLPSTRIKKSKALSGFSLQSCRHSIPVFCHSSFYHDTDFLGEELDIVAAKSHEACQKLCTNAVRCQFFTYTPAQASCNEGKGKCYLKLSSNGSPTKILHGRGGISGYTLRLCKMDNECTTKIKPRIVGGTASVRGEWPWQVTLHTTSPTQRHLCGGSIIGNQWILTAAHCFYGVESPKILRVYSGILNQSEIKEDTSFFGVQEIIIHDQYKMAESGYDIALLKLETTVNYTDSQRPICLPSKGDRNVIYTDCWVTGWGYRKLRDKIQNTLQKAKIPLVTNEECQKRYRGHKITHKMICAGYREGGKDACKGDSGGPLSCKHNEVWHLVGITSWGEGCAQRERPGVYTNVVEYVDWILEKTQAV

B1: NOV1401 (human IgG1/lambda antibody with D265A and P329A in the Fc) (antibody, V domains shown)
VH: QVQLLESGGGLVQPGGSLRLSCAASGFTFSTAAMSWVRQAPGKGLEWVSGISGSGSSTYYADSVKGRFTISRDNSKNTLYLQMNSLRAEDTAVYYCARELSYLYSGYYFDYWGQGTLVTVSS
VL: QSVLTQPPSASGTPGQRVTISCSGSSSNIGSNDVSWYQQLPGTAPKLLIYKNYNRPSGVPDRFSGSKSGTSASLAISGLQSEDEADYYCSAWDQRQFDVVFGGGTKLTVLG
notes: also called NOV1401-IgG; NOV1401-Antibody
Kd [1]: 0.0013 nM
Kd [2]: 0.0047 nM
Kd [3]: 0.0125 nM
Kd [4]: 21 nM
koff [4]: 0.00088 s⁻¹
kon [4]: 42000 M⁻¹ s⁻¹
IC50, inhibition of thrombin generation in the TGA with pooled human plasma [5]: 24 nM
IC50, inhibition of the enzymatic activity of full length human FXIa (cleavage of the fluorescent peptide D-Leu-Pro-Arg*Rh110-D-Pro) [6]: ~0.16 nM
Kd [7]: 0.005 nM

B2: NOV1401-Fab (Fab, V domains shown)
VH: B1 VH
VL: B1 VL
notes: also called Fab of the NOV1401 antibody; Fab portion of NOV1401
fold higher affinity than to the catalytic domain [8]: 300 fold
fold higher affinity than to the catalytic domain [9]: 66 fold
Kd [10]: 19 nM
koff [10]: 0.00061 s⁻¹
kon [10]: 32000 M⁻¹ s⁻¹
Kd [11]: 0.062 nM
Kd [12]: 0.305 nM
fold higher affinity than to the activated FXI [13]: 5 fold
